# B1: DFF45: 45 kDa subunit of the DNA fragmentation factor (protein, UniProt O00273 1-331, looked up)
# DNA fragmentation factor …: MEVTGDAGVPESGEIRTLKPCLLRRNYSREQHGVAASCLEDLRSKACDILAIDKSLTPVTLVLAEDGTIVDDDDYFLCLPSNTKFVALASNEKWAYNNSDGGTAWISQESFDVDETDSGAGLKWKNVARQLKEDLSSIILLSEEDLQMLVDAPCSDLAQELRQSCATVQRLQHTLQQVLDQREEVRQSKQLLQLYLQALEKEGSLLSKQEESKAAFGEEVDAVDTGISRETSSDVALASHILTALREKQAPELSLSSQDLELVTKEDPKALAVALNWDIKKTETVQEACERELALRLQQTQSLHSLRSISASKASPPGDLQNPKRARQDPT
# B2: CIDE-B: cell death-inducing DFF45-like effector B, mouse protein of 219 amino acids (protein, listed as Mus musculus)
# chain: MEYLSAFNPNGLLRSVSTVSSELSRRVWNSAPPPQRPFRVCDHKRTVRKGLTAASLQELLDKVLETLLLRGVLTLVLEEDGTAVDSEDFFQLLEDDTCLMVLEQGQSWSPKSGMLSYGLGREKPKHSKDIARITFDVYKQNPRDLFGSLNVKATFYGLYSMSCDFQGVGPKRVLRELLRGTSSQLQGLGHMLLGISSTLRHVVEGADRWQWHGQRHLHS
# Tests used:
# BJAB cells = test: BJAB apoptosis induced by anti-CD95 (anti-APO1) antibody; type: cell-based, human; conditions: BJAB stably expressing the mutant vs control plasmid, PI staining
# Method: The total amount of transfected plasmid DNA was adjusted with pcDNA3 plasmid to be the same within individual experiments. After transfection, 293T cells were harvested at different times and lysed with 0.2% NP-40 isotonic lysis buffer [N. Inohara et al., Proc. Natl. Acad. Sci. U.S.A. 94:10717-10722 (1997)]. The B lymphocyte-derived BJAB cell line was stably trasnfected by electroporation with pcDNA3 or pcDNA3-Flag-RICK (K38M). After selection with […] (1 μg/ml), bulk cell lines were tested for RICK protein expression with anti-Flag antibody by flow cytometric analysis. […]
# Apoptosis Assays: 5×10^5 293T cells were co-transfected with 0.2 μg of pcDNA3-β-gal plus each expression plasmid in triplicate by the calcium phosphate method as reported [N. Inohara et al., Proc. Natl. Acad. Sci. U.S.A. 94:10717-10722 (1997)]. […] At least 300 hundred blue-staining cells were counted. BJAB apoptosis induced by anti-Apol mAb was determined by flow cytometric analysis of nuclei stained with propidium iodide as described [R. Merino et al., J. Immunol. […] Statistical significance was determined by one-way ANOVA followed by Student-Neuman-Keuls post-doc comparisons.
# [1] = system: caspase-1, caspase-2, caspase-3, caspase-4, caspase-8, CED-3, CED-4, Bcl-XL, TRAF2, c-IAP-1, c-IAP-2 or RAIDD; test: Association of RICK with other apoptosis regulatory proteins; type: binding; conditions: 293T lysates
# Method: (§1) The total amount of transfected plasmid DNA was adjusted with pcDNA3 plasmid to be the same within individual experiments. After transfection, 293T cells were harvested at different times and lysed with 0.2% NP-40 isotonic lysis buffer [N. Inohara et al., Proc. Natl. Acad. Sci. U.S.A. 94:10717-10722 (1997)]. The B lymphocyte-derived BJAB cell line was stably trasnfected by electroporation with pcDNA3 or pcDNA3-Flag-RICK (K38M). After selection with […] (1 μg/ml), bulk cell lines were tested for RICK protein expression with anti-Flag antibody by flow cytometric analysis. For immunoprecipitation, 1 mg of soluble protein was incubated with 10 μg/ml of polyclonal anti-Flag, anti-myc or control antibody overnight at 4° C. and tagged proteins were immunoprecipitated with Protein A-Sepharose 4B (Zymed Laboratories Inc.). Immunoprecipitated proteins or total lysates were subjected to 12% SDS-polyacrylamide electrophoresis and immunoblotted with monoclonal antibodies (mAb) to HA (Boeringer Mannheim) or Flag (Kodak).
# FADD [2] = biological target: T1, FADD (Homo sapiens, UniProt Q13158); test: FADD phosphorylation in transfected cells; type: cell-based; conditions: 293T cells, co-expression with CLARP
# T1 construct: made in house
# T1 sequence (Q13158 1-208): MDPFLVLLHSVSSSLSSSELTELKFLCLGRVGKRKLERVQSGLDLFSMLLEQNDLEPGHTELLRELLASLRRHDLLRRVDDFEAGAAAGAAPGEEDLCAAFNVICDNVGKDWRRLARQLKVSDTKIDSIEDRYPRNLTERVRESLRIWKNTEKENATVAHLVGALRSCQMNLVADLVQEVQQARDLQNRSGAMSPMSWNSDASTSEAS
# Method: Therefore, next it was determined whether expression of CIPERK can regulate the phosphorylation of FADD in vivo. Expression plasmids producing HA-CLARP, Flag-CIPERK and AU1-FADD were transiently transfected into 293T cells, and the expression of FADD was monitored by immunoblotting with anti-AU1 antibody. Transfection of plasmids producing either FADD or FADD plus CIPERK induced the expression of two closely migrating AU1-tagged FADD proteins of ˜27 kDa (FIG. 12A). In contrast, co-expression of FADD, CIPERK and CLARP induced the expression of two additional FADD bands migrating at ˜30 kDa (FIG. 12A), previously shown to represent phosphorylated FADD [B. Z. Stanger et al., Cell 81:513-523 (1995)]. […] The increased induction of FADD phosphorylation by CLARP was specific in that was not observed when FADD was co-expressed with only CIPERK and caspase-8 (FIG. 12A). Furthermore, FADD phosphorylation was induced by ectopic expression of CD95 (FIG. 12B), a stimulus known to induce CD95 oligomerization and activation [J. P. Medema et al., EMBO J. 16:2794 -2804 (1997); B. Z. Stanger et al., Cell 81:513-523 (1995)].
# FADD [3] = biological target: T1, FADD; test: In vitro phosphorylation of recombinant FADD by RICK immunoprecipitates; type: biochemical; conditions: immunoprecipitates from 293T cells, 5 μM [γ-32P]ATP
# From the text: CIPERK proteins in total lysate were detected by immunoblotting with mAb to Flag (middle panel). Recombinant FADD on the same filter used in (A) was detected by immunoblotting, with rabbit polyclonal anti-(His)6 antibody (lower panel). Note CIPERK was autophosphorylated. The estimated molecular size is shown on the left [293T cells were transfected with vector control or plasmid expressing Flag-CIPERK (WT) or Flag-CIPERK-K38M (mt), and then CIPERK proteins were immunoprecipitated by mAb to Flag and incubated with recombinant FADD and 5 μM [γ-^32P]ATP].
# CLARP [4] = biological target: T2, CLARP (Homo sapiens, UniProt O15519); test: Co-immunoprecipitation of RICK with CLARP; type: binding
# Method: as §1
# caspase-8 = biological target: T3, caspase-8 (Homo sapiens, UniProt Q14790); test: Caspase enzymatic assay (Ac-DEVD-AMC) after RICK co-transfection; type: biochemical; conditions: immunoprecipitated caspase-8, Ac-DEVD-AMC substrate
# T3 construct: expressed in transfected cells; host or cells: human 293T cells
# T3 sequence (Q14790 1-496 isoform Q14790-4): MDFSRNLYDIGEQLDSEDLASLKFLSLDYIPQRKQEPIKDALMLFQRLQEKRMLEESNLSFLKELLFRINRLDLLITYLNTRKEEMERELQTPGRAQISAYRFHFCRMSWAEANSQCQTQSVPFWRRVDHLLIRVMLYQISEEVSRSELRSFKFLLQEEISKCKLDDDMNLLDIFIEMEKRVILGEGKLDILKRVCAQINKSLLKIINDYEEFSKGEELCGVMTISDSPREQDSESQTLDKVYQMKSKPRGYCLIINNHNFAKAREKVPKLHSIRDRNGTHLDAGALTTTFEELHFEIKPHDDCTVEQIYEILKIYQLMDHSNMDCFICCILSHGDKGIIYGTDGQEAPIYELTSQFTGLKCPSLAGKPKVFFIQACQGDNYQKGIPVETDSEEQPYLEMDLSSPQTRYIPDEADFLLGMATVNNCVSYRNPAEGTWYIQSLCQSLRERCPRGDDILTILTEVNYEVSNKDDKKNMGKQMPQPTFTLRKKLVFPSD
# Method: Caspase Enzymatic Assay: The human FADD cDNA was cloned into the BamHI and XhoI sites of pcDNA3-myc to produce C-terminal myc-tagged FADD. 5×10^6 293T cells were transfected with 5 μg of pcDNA3, pcDNA3-caspase-8-AU1 or pcDNA3-caspase-8-mt-AU1 [N. Inohara et al., Proc. Natl. Acad. Sci. U.S.A. 94:10717-10722 (1997)] plus 5 μg of pcDNA3, pcDNA3-FADD-myc or pcDNA3- Flag-RICK. At 16 hours after transfection, cells were harvested and lysed with NP-40 buffer [N. Inohara et al., Proc. Natl. Acad. Sci. U.S.A. 94:10717-10722 (1997)]. AU1-tagged proteins were immunoprecipitated with mAb to AU1 and the Ac-DEVD-AMC cleavage activity was measured as previously described [N. Inohara et al., Proc. Natl. Acad. Sci. U.S.A. 94:10717-10722 (1997)].
# NF-KB = NF-KB activation by RICK; type: cell-based, human; conditions: 293T cells
# 293T cells [5] = test: Apoptosis assay, RICK co-transfection; type: cell-based, human; conditions: 293T cells
# Method: as §1
# Apoptosis Assays: 5×10^5 293T cells were co-transfected with 0.2 μg of pcDNA3-β-gal plus each expression plasmid in triplicate by the calcium phosphate method as reported [N. Inohara et al., Proc. Natl. Acad. Sci. U.S.A. 94:10717-10722 (1997)]. In some experiments, 20 μM of the caspase inhibitor zVAD-fmk (Enzyme Systems Products) or 12.5 μl of medium from […] cells producing Fas ligand (Immunex Corporation, Seattle, Wash.) was added at 8 hrs after transfection. At 18 or 24 hours after transfection, cells were fixed, stained for β-galactosidase as described [N. Inohara et al., Proc. Natl Acad. Sci. U.S.A. 94:10717-10722 (1997)] and assayed for morphological features of apoptosis. At least 300 hundred blue-staining cells were counted. BJAB apoptosis induced by anti-Apol mAb was determined by flow cytometric analysis of nuclei stained with propidium iodide as described [R. Merino et al., J. Immunol. 155:3830-3838 (1995)]. Statistical significance was determined by one-way ANOVA followed by Student-Neuman-Keuls post-doc comparisons.
# CLARP [6] = biological target: T2, CLARP; test: Co-immunoprecipitation of RICK with CLARP; type: binding; design: expressed in transfected cells; host or cells: human 293T cells; conditions: CLARP-C (residues 246-480)
# Method: as §1
# 293T cells [7] = test: DNA fragmentation assay; type: cell-based, human; conditions: co-expression
# Method: (§2) Nuclear staining with acridine-orange was performed as described [N. Inohara et al., “harakiri, a novel regulator of cell death, encodes a protein that activates apoptosis and interacts selectively with survival-promoting proteins Bcl-2 and Bcl-XL.,” EMBO J. 16:1686-1694 (1997b)]. Genomic DNA was extracted and analyzed for DNA fragmentation as described [X. Liu et al., “Apaf-1, a human protein homologous to C. elegans CED-4, participates in cytochrome c-dependent activation of caspase-3,” Cell 90:405-413 (1997)].
# 293T cells [8] = test: Apoptosis assay, CIDE transfection; type: cell-based, human; conditions: 293T cells
# Method: Apoptosis Assays, fluorescence staining of nuclear DNA and DNA fragmentation assay: 5×10^5 293T cells were co-transfected with 0.2 μg of pcDNA3-β-gal plus each expression plasmid in triplicate by the calcium phosphate method as reported [N. Inohara et al, “CLARP, a death effector domain-containing protein interacts with caspase-8 and regulates apoptosis,” Proc. Natl. Acad. Sci. USA 94:10717-10722 (1997a)].
# MCF7 were cotransfected with vector control or CIDE-A and β-galactosidase-expressing reporter construct by Lipofectamine (Gibco BRL) according to the manufacturer's instructions. In some experiments, 20 μM zVAD-fmk (benzyloxycarbonyl-Val-Ala-Asp-(OMe)-fluoromethylketone), zFA-fmk (benzyloxycarbonyl-Phe-Ala-(OMc)-fluoromethylketone) and zDEVD-fmk (benzyloxycarbonyl-Asp-Glu-Val-Asp-(OMe)-fluoromethylketone) were added into medium at 8 hr after transfection. zFA-fmk, zVAD-fmk and zDEVD-fmk were obtained from Enzyme Systems. At 24 hours after transfection, cells were fixed, stained for β-galactosidase as described [N. Inohara et al., “CLARP, a death effector domain-containing protein interacts with caspase-8 and regulates apoptosis,” Proc. Natl. Acad. Sci. USA 94:10717-10722 (1997a)] and assayed for morphological features of apoptosis. At least 300 hundred blue-staining cells were counted. Statistical significance was determined by one-way ANOVA followed by Student-Neuman-Keuls post-doc comparisons.
# as §2
# SHEP cells = test: Apoptosis in SHEP cells; type: cell-based; conditions: data not shown
molecule,measurement,setting,value
"RICK-K38M: RICK ATP-binding site mutant, lysine at position 38 replaced by methionine",sensitivity to anti-APO1-induced apoptosis,BJAB cells,significantly less sensitive
"RICK: RIP-like interacting CLARP kinase, protein of 531 amino acids (SEQ ID NO:1)","association with multiple apoptosis regulatory proteins (caspase-1, -2, -3, -4, -8, CED-3, CED-4, Bcl-XL, TRAF2, c-IAP-1, c-IAP-2, RAIDD)",[1],did not associate
same,phosphorylation of FADD in cells,FADD [2],induced the phosphorylation of FADD in the presence of CLARP
same,phosphorylation of recombinant FADD,FADD [3],induced phosphorylation
same,co-immunoprecipitation with CLARP,CLARP [4]; 293T lysates,co-immunoprecipitated
same,interaction with the N-terminal DED-containing domain of CLARP,CLARP [4]; CLARP-N,not
same,enzymatic activity of wild-type (wt) caspase-8,caspase-8,enhanced
same,activation of NFkB,NF-KB,induction of NFkB
same,induction of apoptosis by expression of RICK,293T cells [5]; RICK alone,did not
same,"apoptosis induced by FADD, CLARP and caspase-8",293T cells [5]; co-expression of wt or mutant RICK,enhanced
same,apoptosis promoted by caspase-8,293T cells [5]; co-expression with RICK,augmented
same,apoptosis promoted by caspase-10,293T cells [5]; co-expression with RICK,augmented
same,apoptosis induced by caspase-8-mt,"293T cells [5]; co-expression with RICK, Cys377 to Ser mutant",did not augment
same,interaction with the C-terminal caspase-like domain of CLARP,CLARP [6],interacted
B1,DNA fragmentation induced by CIDE-A,293T cells [7],inhibited
same,induction of apoptosis (killing) of 293T cells by expression,293T cells [8],did not induce apoptosis
same,apoptosis induced by CLARP,293T cells [8]; co-expression,inhibited
same,apoptosis induced by Fas,293T cells [8]; co-expression,inhibited
same,apoptosis of the CIDE-A (108-199) mutant,293T cells [8]; co-expression,not inhibited
same,killing activity of CIDE-A,293T cells [8]; co-expression,inhibited significantly
same,killing activity of CIDE-B,293T cells [8]; co-expression,inhibited significantly
B2,induction of apoptosis in SHEP cells,SHEP cells,induced apoptosis
same,induction of apoptosis (killing) of 293T cells by expression,293T cells [8],induced significant killing of 293T cells in a dose dependent manner

# — patent US6348573B1, “Compositions and methods for identifying apoptosis signaling pathway inhibitors and activators” (The Regents of the University of Michigan, priority 1998, dated 2002)
